Substrate: Oc1ccc(/C=C/c2cc(O)cc(O)c2)cc1
Test: purified protein
Conditions: PBS pH 7.4, 30 °C, 10 min, 10 uM FAD, 1 mM NADH, 1 uM HpaB, 1 uM HpaC, apparent

B1: EcHpaBC (E. coli 4HPA3H; HpaB + HpaC) (Escherichia coli) (protein)
chain: MKPEDFRASTQRPFTGEEYLKSLQDGREIYIYGERVKDVTTHPAFRNAAASVAQLYDALHKPEMQDSLCWNTDTGSGGYTHKFFRVAKSADDLRHERDAIAEWSRLSYGWMGRTPDYKAAFGCALGGTPGFYGQFEQNARNWYTRIQETGLYFNHAIVNPPIDRHLPTDKVKDVYIKLEKETDAGIIVSGAKVVATNSALTHYNMIGFGSAQVMGENPDFALMFVAPMDADGVKLISRASYEMVAGATGSPYDYPLSSRFDENDAILVMDNVLIPWENVLLYRDFDRCRRWTMEGGFARMYPLQACVRLAVKLDFITALLKKSLECTGTLEFRGVQADLGEVVAWRNTFWALSDSMCSEATPWVNGAYLPDHAALQTYRVLAPMAYAKIKNIIERNVTSGLIYLPSSARDLNNPQIDQYLAKYVRGSNGMDHVQRIKILKLMWDAIGSEFGGRHELYEINYSGSQDEIRLQCLRQAQSSGNMDKMMAMVDRCLSEYDQNGWTVPHLHNNDDINMLDKLLK
B1 was tested, and the Km was 670 ± 120 µM, the kcat was 0.0135 s⁻¹ and the kcat/Km was 20 M⁻¹ s⁻¹.
